Source: PMC4097884

Legend:
[1] = target: FMRKA peptide, from an IA^b-random peptide baculovirus library peptide on I-Ab (mouse); assay: SPR, equilibrium
[2] = target: 3K peptide peptide on I-Ab (mouse); assay: SPR, equilibrium

J809.B5 αY31A showed a Kd [1] of 22 µM and a Kd [2] of 32 µM.
